The record followed here is patent publication US20030162277.

The target in data set [1] is T1, cGMP-dependent protein kinase substrate peptide RKISASEFDRPLR
T1 chain: RKISASEFDRPLR

Data set [2] deals with T2, raf-1 kinase substrate peptide SGQLIDSMANSFVGTRS
T2 chain: SGQLIDSMANSFVGTRS

Data set [3] deals with T3, Ca-/calmodulin-dependent PK substrate peptide PLARTLSVAGLPGK
T3 chain: PLARTLSVAGLPGK

In data set [4] the target is T4, abl tyrosine kinase substrate peptide EAIYAAPFAKKK
T4 chain: EAIYAAPFAKKK

Data set [5] has as its target T5, myosin light chain kinase substrate peptide KKRPQRATSNVFS
T5 chain: KKRPQRATSNVFS

Data set [6] addresses T6, protein kinase C substrate peptide KKRFSFKKSFKLSGFSFK
T6 chain: KKRFSFKKSFKLSGFSFK

Data set [7] addresses T7, p42/p44 MAP kinase substrate peptide APRTPGGRR
T7 chain: APRTPGGRR

The target of data set [8] is T8, p42/p44 MAP kinase substrate peptide EAAEAEPAEPSSPAAEAEGA
T8 chain: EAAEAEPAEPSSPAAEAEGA

In data set [9] the target is T9, p42/p44 MAP kinase substrate peptide LMECRNSPVAKT
T9 chain: LMECRNSPVAKT

For data set [10], the target named is T10, Ca-/calmodulin-dependent PK substrate peptide KKALRRQETVDAL
T10 chain: KKALRRQETVDAL

The target of data set [11] is T11, p34 cdc-kinase substrate peptide PKTPKKAKKL
T11 chain: PKTPKKAKKL

Data set [12] deals with T12, casein kinase II substrate peptide RRRDDDSDDD
T12 chain: RRRDDDSDDD

In data set [13] the target is T13, cdc2-kinase substrate peptide Ac-SPGRRRRK
T13 chain: SPGRRRRK

Data set [14] concerns the target T14, csk tyrosine kinase substrate peptide KKKKEEIYFFF
T14 chain: KKKKEEIYFFF

Data set [15] has as its target T15, casein kinase I substrate peptide RRKDLHDDEEDEAMSITA
T15 chain: RRKDLHDDEEDEAMSITA

Data set [16] concerns the target T16, c-src tyrosine kinase substrate peptide YIYGSFK.
T16 chain: YIYGSFK

The target in data set [17] is T17, S6 kinase substrate peptide LSSLRASTSKSGGQK
T17 chain: LSSLRASTSKSGGQK

Data set [18] concerns the target T18, protein kinase C substrate peptide QKRPSQRSK
T18 chain: QKRPSQRSK

Data set [19] deals with T19, cAMP-dependent protein kinase substrate peptide LRRASLG.
T19 chain: LRRASLG

For data set [20], the target named is T20, insulin receptor tyrosine kinase substrate peptide KKKLPATGDYMNMSPVGD
T20 chain: KKKLPATGDYMNMSPVGD

B1: Murine Lymph node Stromal cell Kinase 1 (MLSK-1) (protein)
chain: MESVALLQRPSQAPSASALASESARPLADGLIKSPKPLMKKQAVKRHHHKHNLRHRYEFLETLGKGTYGKVKKARESSGRLVAIKSIRKDKIKDEQDLLHIRREIEIMSSLNHPHIIAIHEVFENSSKIVIVMEYASRGDLYDYISERPRLSERDARHFFRQIVSALHYCHQNGIVHRDLKLENILLDANGNIKIADFGLSNLYHKGKFLQTFCGSPLYASPEIVNGKPYVGPEVDSWSLGVLLYILVHGTMPFDGQDHKTLVKQISNGAYREPPKPSDACGLIRWLLMVNPTRRATLEDVASHWWVNWGYTTGVGEQEALREGGHPSGDFGRASMADWLRRSSRPLLENGAKVCSFFKQHVPGGGSTVPGLERQHSLKKSRKENDMAQNLQGDPAEDTSSRPGKSSLKLPKGILKKKSSTSSGEVQEDPQELRPVPDTPGQPVPAVSLLPRKGILKKSRQRESGYYSSPEPSESGELLDASDVFVSGDPVEQKSPQASGLLLHRKGILKLNGKFSRTALEGTTPSTFGSLDQLASSHPAARPSRPSGAVSEDSILSSESFDQLDLPERLPETPLRGCVSVDNLRGLEQPPSEGLKRWWQESLGDSCFSLTDCQEVTAAYRQALGICSKLS
Regarding B1, the Phosphorylation by MLSK-1 (% of max.) in [1] was 62.2 % of max; in data set [2], 43.1 % of max; in data set [3], 10.3 % of max; in data set [4], 69.3 % of max; in data set [5] it was 72 % of max; in data set [6], 100 % of max. Moreover, the Phosphorylation by MLSK-1 (% of max.) was 88.6 % of max in data set [7]; 0 % of max in data set [8]; 3.8 % of max in [9]; 20.9 % of max in data set [10]; 82 % of max in data set [11]; 17.6 % of max in data set [12]. The Phosphorylation by MLSK-1 (% of max.) in [13] was 94.8 % of max; in data set [14], 82.1 % of max; in data set [15] it was 14.1 % of max; in data set [16] it was 66.6 % of max; in data set [17], 66.6 % of max; in data set [18], 75 % of max. Moreover, the Phosphorylation by MLSK-1 (% of max.) was 65.9 % of max in [19] and 33.7 % of max in data set [20].
